For experiment [1], the target named is CD38 on cells (Raji, Daudi, REH, CD38-transfected HEK293) (human) (UniProt P28907). The experiment is described as follows: flow cytometry on Raji cells (express CD19 and CD38), 11 concentrations from 30 ug/mL.
Experiment [2] shares this target. As to the kind of experiment: flow cytometry on Raji cells (express CD19 and CD38). For orientation: A flow cytometer gives signals particle by particle.
Experiment [3] has the same target. The experiment is described as follows: flow cytometry on Raji cells; top asymptote fixed at about the maximum response of Darzalex.

One may read the EC50 as the midpoint of the concentration-response curve. A lower EC50 goes with a more potent agent. Turning to Darzalex® (CD38 control) (antibody), in experiment [1], the EC50 worked out at 0.195 µg/mL and the Max MFI is 4.02e+06 MFI. In experiment [2], this substance returned a half-maximal effective concentration (EC50) of 1.27 nM. The Adjusted EC50 in experiment [3] was 1.27 nM.

The values above are taken from patent US20220185907A1.
